T1: human IL-13Rα1 (human, UniProt P78552 22-427)
T1 construct: whole, on cells; also called IL-13Ralpha1; IL-13Rα1 on CHO cells expressing human IL-13Rα1 and human IL-4Rα
T1 sequence (looked up): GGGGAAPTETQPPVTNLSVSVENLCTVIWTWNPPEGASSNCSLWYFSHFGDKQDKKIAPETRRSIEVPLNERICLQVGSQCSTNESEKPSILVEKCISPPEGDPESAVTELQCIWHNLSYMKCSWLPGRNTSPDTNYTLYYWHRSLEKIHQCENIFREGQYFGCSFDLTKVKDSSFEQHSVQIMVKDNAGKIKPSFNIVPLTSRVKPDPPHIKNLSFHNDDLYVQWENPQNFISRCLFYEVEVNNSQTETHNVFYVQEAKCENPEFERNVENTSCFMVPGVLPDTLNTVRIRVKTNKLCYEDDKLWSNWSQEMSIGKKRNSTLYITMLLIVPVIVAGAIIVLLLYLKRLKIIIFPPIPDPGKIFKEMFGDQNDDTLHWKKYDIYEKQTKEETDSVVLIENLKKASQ

T2: extracellular domain of hIL-13Rα1 cleaved from hIL-13Rα1:hFc chimeric protein (human, UniProt P78552 22-343)
T2 construct: extracellular domain; also called Cleaved hIL-13Rα1 molecules (MW 40 kDa)
T2 sequence (looked up): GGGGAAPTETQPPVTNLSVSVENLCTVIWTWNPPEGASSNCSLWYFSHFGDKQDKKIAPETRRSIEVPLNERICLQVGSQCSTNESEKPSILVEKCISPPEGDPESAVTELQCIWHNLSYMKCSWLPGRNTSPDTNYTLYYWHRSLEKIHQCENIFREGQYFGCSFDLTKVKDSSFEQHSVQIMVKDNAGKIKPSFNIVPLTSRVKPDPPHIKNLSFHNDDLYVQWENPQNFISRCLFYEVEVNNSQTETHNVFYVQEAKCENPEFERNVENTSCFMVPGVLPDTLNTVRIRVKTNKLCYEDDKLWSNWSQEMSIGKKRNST

T3: hIL-13Rα1:hFc chimeric protein (R&D Systems, UK) (human, UniProt P78552 22-343)
T3 construct: extracellular domain; Bought; also called chimeric hIL-13Rα1:hFc; not shown: human Fc (hFc) of the bought chimera
T3 sequence (looked up): T2 sequence (looked up)

B1: HuMab LC5002-005 (antibody, V domains shown)
VH: EVQVLDSGGGLVQPGGSLRLSCTASGFTFRLYTMSWVRQTPGRGLEWVSGISGSGLSTYFADSVKGRFTISRDNSKNTVYLQMNSLRAEDTAVYYCAKEGDWIYFDSWGQGTLVIVSS
VL: DIQMTQSPSSLSASVGDRVTITCRASQGISSWLAWYQQKPEKAPKSLIYAASSLQSGVPSRFSGSGSGTDFTLTISSLQPEDFATYYCQQYNSHPPTFGQGTKLEIK
notes: Only the variable domains are tied to this antibody; also called hu-MAB<h-IL-13Ralpha>LC.5002-005 (DSM ACC2711)
B2: HuMab LC5002-002 (antibody, human IgG1, V domains shown)
VH: EVQLLESGGGLVQPGGSLRLSCAASGFTFNIYAMNWVRQAPGKGLEWVSVISGRGITTYYADSVKGRFTISRDNSKNTLYLQMNSLRADDTAVYYCAKGSSSWTDFDYWGQGTLVTVSS
VL: B1 VL with S31R, L33V, H94Y, P96W, L104V
notes: Human IgG1 kappa from a HuMab mouse hybridoma; Only the variable domains are tied to this antibody; also called hu-MAB<h-IL-13R alpha>LC.5002-002 (DSM ACC2709)
B3: HuMab LC5002-003 (antibody, V domains shown)
VH: B2 VH with G10D, V12I, N84D, D89E, S102Y
VL: B1 VL with H94Y, P96W, L104V
notes: Human IgG1 kappa from a HuMab mouse hybridoma; Only the variable domains are tied to this antibody; also called LC50002-003; hu-MAB<h-IL-13Ralpha>LC.5002-003 (DSM ACC2710)
B4: HuMab LC5002-007 (antibody, human IgG1, V domains shown)
VH: QVQLVQSGAEVKKPGSSVKVSCKVSGGTFSSYAFSWVRQAPGQGLEWMGRIIPILGRTNYAQKFQGRVTITADKSTSTAYMEVSSLRSEDTAVYYCAREGETLDYFYYGMDVWGQGTTVTVSS
VL: EIVLTQSPGTLSLSPGERATLSCRASQSVSSSYLAWYQQKPGQAPRLLIYGASSRAIGIPDRFSGSGSGTDFTLTISRLEPEDFAVYYCQHYGSSLTFGGGTKVEIK
notes: Human IgG1 kappa from a HuMab mouse hybridoma; Only the variable domains are tied to this antibody; also called hu-MAB<h-IL-13R alpha>LC.5002-007 (DSM ACC2712)

Residue numbers refer to the chain shown, from its start.

Results on four molecules are retold here after patent US20110086026A1 (ROCHE PALO ALTO, published 2011).

For orientation: Kd means a measure of binding affinity in units of concentration. Read a high Kd as weaker binding. By koff is commonly meant the first-order rate constant of dissociation. Low values mean a long-lived complex, high ones a short-lived complex. The term kon denotes the second-order rate constant of association. A high value points to faster complex formation.

One test concerns the target T1, human IL-13Rα1. Kind of test: radioligand competition: 125I-IL-13 (0.1 nM) binding to CHO cells expressing human IL-13Rα1 and IL-4Rα. Here is the method: ¹²⁵I-IL-13 binding assay was performed using CHO cells expressing human IL-13Rα1 and human IL-4Rα in binding buffer (25 mM HEPES, 150 mM NaCl, 1 mM CaCl₂, 5 mM MgCl₂, and 0.5% bovine serum albumin, adjusted to pH 7.2). 1×10⁵ cells per well were mixed with the antibodies and preincubated for 15 minutes to 1 hour. 0.1 nM ¹²⁵I-IL-13 was added, and the mix was incubated at 4° C. for 4 hours. The concentration of ¹²⁵I-IL-13 used in the assay was determined from saturation binding analysis, competition analysis and determination of input ¹²⁵I-IL-13 to reach equilibrium binding with the cell line. Samples were harvested onto a GF/C filter plate pretreated with 1% PEI/0.5% BSA and counted on Packard TopCount Scintillation counter. Data analysis was performed in PRISM using nonlinear regression curve fit (GraphPad Software, San Diego, Calif.).
On the technique in general: Displacement assays read how much labelled ligand stays bound in the presence of the test substance.
As to B1, the “IC50 (read off the curve)” value was approximately 100 pM.
The same measure, in the same setting: the result for B2 reads approximately 100 pM.
Still for that read-out and setting: the result for B3 reads approximately 200 pM.

For the next test, the target named is T2, extracellular domain of hIL-13Rα1 …. Kind of test: SPR Biacore 3000, C1 chip, HuMab captured by anti-hFcγ, cleaved hIL-13Rα1 as analyte, 1:1 Langmuir model. Here is the method: For interaction analysis, a Biacore 3000 instrument was used. Running and reaction buffer was HBS-P (10 mM HEPES, 150 mM NaCl, 0.005% polysurfactant P, pH 7.4) at 25° C. Capturing antibody molecules (anti-hFcγ) were amine-coupled at a concentration of 100 μg/ml at a flow rate of 5 μl/min for 20 minutes. HuMabs were injected at concentrations of 10 μg/ml at a flow rate of 10 μl/min for 30 seconds. Cleaved hIL-13Rα1 molecules (MW 40 kDa) were injected for 200 seconds at seven concentrations between 1.56 nM and 100 nM and washed with HBS-P for five minutes. Regeneration of the surface was accomplished by two injections of 100 mM HCl for 1 min each at a flow rate of […]. The chip, assay format and sequence of injections and kinetic data correspond to the description in the following Table 3. Kinetic data were calculated by fitting kinetic data to a 1:1 Langmuir binding model.
For the molecule B4, the dissociation constant (Kd) is 4400 pM, the off-rate constant (koff) came to 0.00083 s⁻¹ and the kon came to 190000 M⁻¹ s⁻¹.
For B1 the same measures were 220 pM, 0.0003 s⁻¹ and 1.4e+06 M⁻¹ s⁻¹.
For B2 the same measures were 620 pM, 0.00065 s⁻¹ and 1.1e+06 M⁻¹ s⁻¹.
B3 gave a dissociation constant (Kd) of 390 pM, an off-rate constant (koff) of 0.00051 s⁻¹ and an on-rate constant (kon) of 1.3e+06 M⁻¹ s⁻¹.

Another test addresses T3, hIL-13Rα1:hFc chimeric protein (R&D …). Kind of test: SPR Biacore 3000, HuMab captured by anti-hFcγ, hIL-13Rα1:hFc as analyte, 1:1 Langmuir model. The protocol:
For interaction analysis a Biacore 3000 instrument was used. As running and reaction buffer, HBS-P (10 mM HEPES, 150 mM NaCl, 0.005% polysurfactant P, pH 7.4) at 25° C. was used. Capturing molecules (goat anti-human-IgG, Fcγ specifc) were amine-coupled at a concentration of 20 μg/ml at a flow rate of 5 μl/min for 20 minutes. HuMabs were injected at a concentration of 1 μg/ml at a flow rate of 10 μl/min for 1 minute. Blocking of the free goat anti human IgG, Fcγ was achieved by injecting human gamma globulin at 500 nM and 30 μl/min for 3 minutes. Analyte (hIL-13Rα1:hFc chimeric protein) was injected for two minutes at five concentrations between 5.63 nM and 90 nM and washed with HBS-P for five minutes. Regeneration of the surface was accomplished by two injections of 100 mM HCl for 1 min each. The chip, assay format and sequence of injections and kinetic data correspond to the description in table 2. Negative control data (e.g. buffer curves) were subtracted from sample curves for correction of system intrinsic baseline drift and for noise signal reduction. BiaEvaluation version 4.01 was used for analysis of sensorgrams and for calculation of affinity data. Kinetic data were calculated by fitting kinetic data to a 1:1 Langmuir binding model (Table 2).
Background: In SPR one partner is held on a chip, and binding of the other changes the refractive index at the surface.
On to B4, for which the Kd is less than 8.4 pM, the koff worked out at 1e-06 s⁻¹ and the kon came to 119000 M⁻¹ s⁻¹.
On the same counts, the results for B1 are 18 pM, 3.12e-06 s⁻¹ and 173000 M⁻¹ s⁻¹.
On the same counts, the results for B3 are less than 6.5 pM, 1.4e-06 s⁻¹ and 210000 M⁻¹ s⁻¹.

The target of the next test is T1, human IL-13Rα1. Kind of test: cell-based or functional assay.
Consider B1, for which the “IC50, IL-13-induced Stat-6 phosphorylation in BSMC” value came out at 1180 pM and the “IC50, TF-1 proliferation in response to IL-13” value (“IC50, TF-1 proliferation” below) stood at 390 pM.
Turning to B2, the “IC50, TF-1 proliferation” value is 9210 pM.
As to B3, the “IC50, IL-13-induced Stat-6 phosphorylation in BSMC” value worked out at 5980 pM and the “IC50, TF-1 proliferation” value worked out at 3070 pM.
